In publication PMC6458997 (Molecular Cell, 2019):

B1: SPbeta AimR (arbitrium peptide receptor / transcription factor AimR of Bacillus subtilis phage SPbeta), full length (natural protein, Bacillus subtilis SPbeta phage, UniProt O64094 1-386, looked up)
chain: MELIRIAMKKDLENDNSLMNKWATVAGLKNPNPLYDFLNHDGKTFNEFSSIVNIVKSQYPDREYELMKDYCLNLDVKTKAARSALEYADANMFFEIEDVLIDSMISCSNMKSKEYGKVYKIHRELSNSVITEFEAVKRLGKLNIKTPEMNSFSRLLLLYHYLSTGNFSPMAQLIKQIDLSEISENMYIRNTYQTRVHVLMSNIKLNENSLEECREYSKKALESTNILRFQVFSYLTIGNSLLFSNYELAQENFLKGLSISVQNENYNMIFQQALCFLNNVWRKENKWINFESDSIMDLQEQAHCFINFNENSKAKEVLDKLDLLVHNDNELAMHYYLKGRLEQNKACFYSSIEYFKKSNDKFLIRLPLLELQKMGENQKLLELLLL
notes: AimR of Bacillus subtilis phage SPbeta, amplified from genomic DNA of Bacillus subtilis strain 168; full-length AimR (residues 1-386); Cloned in pLicSGC1 with N-terminal 6xHis tag and TEV site; digested with TEV protease; A selenomethionine derivative was used to phase the AimR-AimP structure; also called WT AimR; apo AimR; source: E. coli BL21 (DE3) RIL, purified (HisTrap FF, TEV digestion, …)

What was measured:
[1] = molecular target: the molecule itself; assay: SEC-MALS; as the apo run, with 1 mM AimP peptide added to the injected sample and 1 μM peptide in the running buffer (25 mM Tris pH 8, 250 mM NaCl)
[2] = molecular target: the molecule itself; assay: SEC-MALS; 50 μL protein at 5 mg/mL on Superdex 200 HR 10/300 in 25 mM Tris pH 8, 250 mM NaCl; no peptide
[3] = molecular target: B1; assay: thermal shift assay (differential scanning fluorimetry); 20 μM protein, 5x Sypro Orange, 20 mM Tris pH 8, 250 mM NaCl, heated 20 to 85°C; apparent Kd from 10 peptide concentrations from 0 to 2 μM, fitted to a single binding site per monomer; conditions: both partners purified

B1
stoichiometry N [1]: 2

B2: SPbeta AimR D360A mutant (natural protein, Bacillus subtilis SPbeta phage)
chain: MELIRIAMKKDLENDNSLMNKWATVAGLKNPNPLYDFLNHDGKTFNEFSSIVNIVKSQYPDREYELMKDYCLNLDVKTKAARSALEYADANMFFEIEDVLIDSMISCSNMKSKEYGKVYKIHRELSNSVITEFEAVKRLGKLNIKTPEMNSFSRLLLLYHYLSTGNFSPMAQLIKQIDLSEISENMYIRNTYQTRVHVLMSNIKLNENSLEECREYSKKALESTNILRFQVFSYLTIGNSLLFSNYELAQENFLKGLSISVQNENYNMIFQQALCFLNNVWRKENKWINFESDSIMDLQEQAHCFINFNENSKAKEVLDKLDLLVHNDNELAMHYYLKGRLEQNKACFYSSIEYFKKSNAKFLIRLPLLELQKMGENQKLLELLLL
stoichiometry N [2]: 2

B3: SPbeta AimR N202A mutant (natural protein, Bacillus subtilis SPbeta phage)
chain: MELIRIAMKKDLENDNSLMNKWATVAGLKNPNPLYDFLNHDGKTFNEFSSIVNIVKSQYPDREYELMKDYCLNLDVKTKAARSALEYADANMFFEIEDVLIDSMISCSNMKSKEYGKVYKIHRELSNSVITEFEAVKRLGKLNIKTPEMNSFSRLLLLYHYLSTGNFSPMAQLIKQIDLSEISENMYIRNTYQTRVHVLMSAIKLNENSLEECREYSKKALESTNILRFQVFSYLTIGNSLLFSNYELAQENFLKGLSISVQNENYNMIFQQALCFLNNVWRKENKWINFESDSIMDLQEQAHCFINFNENSKAKEVLDKLDLLVHNDNELAMHYYLKGRLEQNKACFYSSIEYFKKSNDKFLIRLPLLELQKMGENQKLLELLLL
stoichiometry N [2]: 2

B4: SPbeta AimP arbitrium peptide GMPRGA (peptide)
peptide: GMPRGA
notes: active (mature) arbitrium hexapeptide AimP of phage SPbeta, product of the yopL gene, which corresponds to phi3T aimP; also called GMPRGA peptide; SPbeta-specific arbitrium peptide; source: synthetic peptide, bought: ProteoGenix (95% purity)
Kd [3]: 53.8 nM
increment in the melting temperature (Tm) of AimR [3]: ~10 °C
